Assay results as given in patent US20210054094A1 (Hoffmann-La Roche, published 2021).

How the values were obtained:
murine GPRC5D = target: T1, murine GPRC5D (murine, UniProt Q9JIL6 1-344); assay: cell ELISA on stably transfected CHO cells
T1 construct: whole, on cells; also called murin GPRC5D
T1 sequence (looked up): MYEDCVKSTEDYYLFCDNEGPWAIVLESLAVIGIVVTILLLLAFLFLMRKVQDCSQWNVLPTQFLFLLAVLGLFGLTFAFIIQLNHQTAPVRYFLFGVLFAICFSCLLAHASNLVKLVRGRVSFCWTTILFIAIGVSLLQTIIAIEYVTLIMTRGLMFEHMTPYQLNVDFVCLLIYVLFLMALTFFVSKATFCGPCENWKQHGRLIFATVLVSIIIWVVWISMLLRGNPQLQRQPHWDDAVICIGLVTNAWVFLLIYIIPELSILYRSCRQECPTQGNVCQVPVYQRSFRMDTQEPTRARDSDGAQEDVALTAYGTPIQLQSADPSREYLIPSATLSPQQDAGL
Procedure: (§1) Stable transfected CHO clones expressing either human GPRC5D or cynomolgus GPRC5D or murin GPRC5D or human GPRC5A were used to analyze the binding of potential lead candidate antibodies as IgGs. In detail, 10⁴ cells (viability≥98%) were seeded into 384 well-microtiter plates (BD Poly D-Lysin, #356662, volume: 25 μl/well) using fresh culture medium. After overnight incubation at 37° C., 25 μl/well dilutions of antibodies were added (15×1:3 dilutions in 1×PBS, assay conc. starts at 30 μg/ml) to the cells for 2 hours at 4° C. After one washing step using 90 μl/well PBST (10×PBS, Roche, #11666789001+0.1% Tween 20), cells were subsequently fixed by the addition of 50 μl/well 0.05% glutharaldehyde (Sigma Cat. No: G5882 in 1×PBS) for 10 min at room temperature (RT). After three additional washing steps using 90 μl/well PBST, secondary antibodies were added for detection: for human antibodies goat anti-human Ig κ chain antibody HRP conjugate (Millipore #AP502P) diluted 1:2000 in blocking buffer (1×PBS (Roche #11666789001)+2% BSA (Bovine Serum Albumin Fraction V, fatty acid free, Roche, #10735086001)+0.05% Tween 20) was used (25 μl/well). […] After incubation for 1 h at RT and three additional washing steps using 90 μl/well PBST, 25 μl/well TMB substrate was added (Roche order no. 11835033001) for 10 min and color development to final ODs was determined by measurement at 370 nm/492 nm.
(§2) Cynomolgus crossreactivity was also detected for all other antibodies but at lower levels compared to 10B10 and 07A04 (FIG. 9). No significant binding to CHO cells expressing murine GPRC5D and no binding to CHO cells expressing the human version of GPRC5A was detected (FIG. 9).

human GPRC5A = target: T2, human GPRC5A (human, UniProt Q8NFJ5 1-357); assay: cell ELISA on stably transfected CHO cells
T2 construct: whole, on cells; also called hu GPCR5A
T2 sequence (Q8NFJ5 whole entry): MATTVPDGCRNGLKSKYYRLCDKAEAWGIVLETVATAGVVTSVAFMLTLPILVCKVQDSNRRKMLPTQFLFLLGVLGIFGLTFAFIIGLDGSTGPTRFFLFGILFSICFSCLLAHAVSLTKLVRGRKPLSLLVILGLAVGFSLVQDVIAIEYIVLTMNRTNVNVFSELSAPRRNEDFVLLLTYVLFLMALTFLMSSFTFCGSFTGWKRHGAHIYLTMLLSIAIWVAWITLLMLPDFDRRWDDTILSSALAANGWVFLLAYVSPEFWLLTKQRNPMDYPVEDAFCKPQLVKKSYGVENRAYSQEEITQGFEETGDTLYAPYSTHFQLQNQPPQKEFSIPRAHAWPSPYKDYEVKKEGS
Procedure: as §1, §2

human GPRC5D [1] = target: T3, human GPRC5D (human, UniProt Q9NZD1 1-345); assay: cell-based or functional assay
T3 sequence (Q9NZD1 whole entry): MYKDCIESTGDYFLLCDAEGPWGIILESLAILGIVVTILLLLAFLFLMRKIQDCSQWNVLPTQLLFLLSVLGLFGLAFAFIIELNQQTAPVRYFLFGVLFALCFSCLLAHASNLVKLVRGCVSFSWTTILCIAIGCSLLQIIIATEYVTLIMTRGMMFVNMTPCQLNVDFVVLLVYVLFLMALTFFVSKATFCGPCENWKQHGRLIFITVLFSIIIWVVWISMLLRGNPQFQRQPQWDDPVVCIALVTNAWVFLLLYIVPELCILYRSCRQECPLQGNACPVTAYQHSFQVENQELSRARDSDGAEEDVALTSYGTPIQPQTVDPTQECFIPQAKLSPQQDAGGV

human GPRC5D [2] = target: T3, human GPRC5D; assay: cell-based or functional assay; remark: listed apart in the source
[3] = target: T4, B-cell maturation antigen (BCMA) (UniProt Q02223 1-184, limits assumed); assay: cell-based or functional assay
T4 sequence (looked up): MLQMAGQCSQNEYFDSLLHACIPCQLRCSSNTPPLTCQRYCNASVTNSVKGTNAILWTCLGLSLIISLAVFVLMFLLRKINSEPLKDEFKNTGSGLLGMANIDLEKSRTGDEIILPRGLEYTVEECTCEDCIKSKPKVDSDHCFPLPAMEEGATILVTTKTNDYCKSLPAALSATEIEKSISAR

B1: 07A04 IgG (antibody, V domains shown)
VH: QVTLKESGPGILQPSHTLSLTCSFSGFSLSTYGMGVNWIRQPSGKGLEWLASIWWNGNTYNNPSLKSRLTVSKDTSNNQAFLKVTSVDTADTATYYCVHTRGIIRGRGLFFDYWGQGVMVTVSS
VL: DVQMTQSPYNLAASPGESVSINCKASKSISKYLAWYQQKPGKANKLLIYDGSTLQSGIPSRFSGSGSGTDFTLTIRSLEPEDFGLYYCQQHNEYPLTFGSGTKLEIKR
notes: also called rat IgG 07A04
- binding result (murine GPRC5D): no binding (tested: 30 µg/ml top concentration)
- binding result (human GPRC5A): no binding (tested: 30 µg/ml top concentration)

B2: 5F11 IgG (antibody, V domains shown)
VH: EVQLVESGGGLVQPGRSLKLSCAASGFSFSNYGMAWVRQAATKGLEWVASISTGGGNTYYRDSVKGRFIVSRDNAKNTQYLQMDSLRSEDTATYYCTRHDRGGLYWGQGVMVTVSS
VL: DIVMTQAPLSVSVTPGESASISCRSSKSLLHSNGITYVYWYFQKPGKSPQVLIYRMSNLASGVPDRFSGSGSETDFTLKISRVEAEDVGIYHCGQLLENPYTFGAGTELELK
- binding result (human GPRC5A): no binding (tested: 30 µg/ml top concentration)

B3: 5E11 IgG (antibody, V domains shown)
VH: ELQLEQSGGGLVQPGGSLTLSCAASGFTFSKYAMAWVRQAPTKGLEWVASISTGGVNTYYRDSVKARFTISRDNAKNTQYLQMDSLRSEDTATYYCATHTGDYFDYWGQGVMVTVSS
VL: DIVLTQSPALAVSPGQRATISCRASQSVSISGINLMNWYQQKPGQQPKLLIYHASILASGIPTRFSGSGSGTDFTLTIDPVQADDIATYYCQQTRESPLTFGSGTNLEIK
- binding result (human GPRC5A): no binding (tested: 30 µg/ml top concentration)

B4: 5F11-TCB (bispecific antibody, human IgG1, kappa, L234A L235A)
light 1: DIVMTQAPLSVSVTPGESASISCRSSKSLLHSNGITYVYWYFQKPGKSPQVLIYRMSNLASGVPDRFSGSGSETDFTLKISRVEAEDVGIYHCGQLLENPYTFGAGTELELKRTVAAPSVFIFPPSDRKLKSGTASVVCLLNNFYPREAKVQWKVDNALQSGNSQESVTEQDSKDSTYSLSSTLTLSKADYEKHKVYACEVTHQGLSSPVTKSFNRGEC
light 2: EVQLLESGGGLVQPGGSLRLSCAASGFTFSTYAMNWVRQAPGKGLEWVSRIRSKYNNYATYYADSVKGRFTISRDDSKNTLYLQMNSLRAEDTAVYYCVRHGNFGNSYVSWFAYWGQGTLVTVSSASVAAPSVFIFPPSDEQLKSGTASVVCLLNNFYPREAKVQWKVDNALQSGNSQESVTEQDSKDSTYSLSSTLTLSKADYEKHKVYACEVTHQGLSSPVTKSFNRGEC
heavy 1: EVQLVESGGGLVQPGRSLKLSCAASGFSFSNYGMAWVRQAATKGLEWVASISTGGGNTYYRDSVKGRFIVSRDNAKNTQYLQMDSLRSEDTATYYCTRHDRGGLYWGQGVMVTVSSASTKGPSVFPLAPSSKSTSGGTAALGCLVEDYFPEPVTVSWNSGALTSGVHTFPAVLQSSGLYSLSSVVTVPSSSLGTQTYICNVNHKPSNTKVDEKVEPKSCDKTHTCPPCPAPEAAGGPSVFLFPPKPKDTLMISRTPEVTCVVVDVSHEDPEVKFNWYVDGVEVHNAKTKPREEQYNSTYRVVSVLTVLHQDWLNGKEYKCKVSNKALGAPIEKTISKAKGQPREPQVCTLPPSRDELTKNQVSLSCAVKGFYPSDIAVEWESNGQPENNYKTTPPVLDSDGSFFLVSKLTVDKSRWQQGNVFSCSVMHEALHNHYTQKSLSLSPGK
heavy 2: not shown
- EC50 of in vitro killing, AMO-1 cells (human GPRC5D [1]): 6 pM
- EC50 of in vitro killing, EJM cells (human GPRC5D [1]): 3 pM
- EC50 of in vitro killing, L363 cells (human GPRC5D [1]): 3 pM
- EC50 of in vitro killing, MOLP-2 cells (human GPRC5D [1]): 1 pM
- EC50 of in vitro killing, NCI-H929 cells (human GPRC5D [1]): 4 pM
- EC50 of in vitro killing, OPM-2 cells (human GPRC5D [1]): 1 pM
- EC50 of in vitro killing, RPMI cells (human GPRC5D [1]): 6 pM
- EC50 of T cell cytotoxicity (LDH release) on AMO-1 cells (human GPRC5D [2]): 3 pM
- EC50 of T cell cytotoxicity (LDH release) on L363 cells (human GPRC5D [2]): 1 pM
- EC50 of T cell cytotoxicity (LDH release) on NCI-H929 cells (human GPRC5D [2]): 1 pM
- EC50 of T cell cytotoxicity (LDH release) on RPMI-8226 cells (human GPRC5D [2]): 2 pM

B5: BCMA-TCB (bispecific antibody, human IgG1, kappa, L234A L235A)
heavy 1: EVQLLESGGGLVQPGGSLRLSCAASGFTFSSYAMNWVRQAPGKGLEWVSAITASGGSTYYADSVKGRFTISRDNSKNTLYLQMNSLRAEDTAVYYCARYWPMSLWGQGTLVTVSSASTKGPSVFPLAPSSKSTSGGTAALGCLVEDYFPEPVTVSWNSGALTSGVHTFPAVLQSSGLYSLSSVVTVPSSSLGTQTYICNVNHKPSNTKVDEKVEPKSCDKTHTCPPCPAPEAAGGPSVFLFPPKPKDTLMISRTPEVTCVVVDVSHEDPEVKFNWYVDGVEVHNAKTKPREEQYNSTYRVVSVLTVLHQDWLNGKEYKCKVSNKALGAPIEKTISKAKGQPREPQVCTLPPSRDELTKNQVSLSCAVKGFYPSDIAVEWESNGQPENNYKTTPPVLDSDGSFFLVSKLTVDKSRWQQGNVFSCSVMHEALHNHYTQKSLSLSPGK
light 1: EIVLTQSPGTLSLSPGERATLSCRASQSVSAYYLAWYQQKPGQAPRLLMYDASIRATGIPDRFSGSGSGTDFTLTISRLEPEDFAVYYCQQYERWPLTFGQGTKVEIKRTVAAPSVFIFPPSDRKLKSGTASVVCLLNNFYPREAKVQWKVDNALQSGNSQESVTEQDSKDSTYSLSSTLTLSKADYEKHKVYACEVTHQGLSSPVTKSFNRGEC
heavy 2: not shown
light 2: B4 light 2
- EC50 of in vitro killing, AMO-1 cells [3]: 518 pM
- EC50 of in vitro killing, EJM cells [3]: 132 pM
- EC50 of in vitro killing, L363 cells [3]: 127 pM
- EC50 of in vitro killing, MOLP-2 cells [3]: 32 pM
- EC50 of in vitro killing, NCI-H929 cells [3]: 311 pM
- EC50 of in vitro killing, OPM-2 cells [3]: 33 pM
- EC50 of in vitro killing, RPMI cells [3]: 11 pM

B6: 10B10 IgG (antibody, V domains shown)
VH: EVQLVESGGGLVQPGRSMKLSCAASGFTFTNFYMAWVRQAPTKALEWVASINTGGGYTYYRDSVKGRFTVSRDNTRSTLYLQMDSLRSEETATYYCARHLTYYGRYYYFDYWGQGVMVTVSS
VL: DIQLTQSPHSLSASLGETVSIECLASEGISNYLAWFHQKPGKSPQLLIYYASSLQDGVPSRFSGSGSGTQYSLKISNMQPEDEGVYYCQQGYKYPLTFGSGTKLEIK
notes: also called rat IgG 10B10
- binding result (murine GPRC5D): no binding (tested: 30 µg/ml top concentration)
- binding result (human GPRC5A): no binding (tested: 30 µg/ml top concentration)
